From patent US20160053011A1 (ABCLON, published 2016)

Tests used:
ECD = assay: ELISA on HER2 ECD, absorbance; antibody concentration not given
Domain2 = target: T1, Domain2 (human, UniProt P04626); assay: ELISA on HER2 sub-domain Fc fusions, absorbance; antibody concentration not given
T1 construct: single sub-domain of the extracellular domain; produced in animal cells, purified with Protein-A; also called HER2 sub-domain 2 with hinge region and Fc region of human IgG1

Domain1 = target: T2, Domain1 (human, UniProt P04626); assay: as above
T2 construct: single sub-domain of the extracellular domain; produced in animal cells, purified with Protein-A; also called HER2 sub-domain 1 with hinge region and Fc region of human IgG1

Domain3 = target: T3, Domain3 (human, UniProt P04626); assay: as above
T3 construct: single sub-domain of the extracellular domain; produced in animal cells, purified with Protein-A; also called HER2 sub-domain 3 with hinge region and Fc region of human IgG1

Rat = target: T4, Rat (rat, UniProt P06494); assay: ELISA on HER2 extracellular domains of five species, absorbance; antibody concentration not given
T4 construct: extracellular domain; also called HER2 extracellular domain of a rat (Sino Biological Inc., #80079-R08H); rat HER2
T4 sequence (P06494 23-654): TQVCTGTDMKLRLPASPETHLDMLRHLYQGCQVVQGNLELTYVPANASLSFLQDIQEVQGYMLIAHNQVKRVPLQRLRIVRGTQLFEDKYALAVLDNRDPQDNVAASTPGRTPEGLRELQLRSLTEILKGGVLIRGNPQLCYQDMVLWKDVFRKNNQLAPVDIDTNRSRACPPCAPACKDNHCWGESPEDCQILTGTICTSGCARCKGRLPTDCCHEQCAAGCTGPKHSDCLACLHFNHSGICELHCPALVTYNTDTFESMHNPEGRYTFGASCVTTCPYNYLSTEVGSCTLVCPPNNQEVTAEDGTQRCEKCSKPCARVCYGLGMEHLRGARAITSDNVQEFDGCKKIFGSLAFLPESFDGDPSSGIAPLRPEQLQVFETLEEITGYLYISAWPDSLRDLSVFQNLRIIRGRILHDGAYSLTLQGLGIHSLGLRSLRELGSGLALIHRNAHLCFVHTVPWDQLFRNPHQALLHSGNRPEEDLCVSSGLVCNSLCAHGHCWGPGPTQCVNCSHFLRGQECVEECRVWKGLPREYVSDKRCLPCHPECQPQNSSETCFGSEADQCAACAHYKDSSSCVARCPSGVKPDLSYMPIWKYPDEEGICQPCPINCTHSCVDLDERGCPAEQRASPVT

[1] = target: T5, HER2 extracellular domain of a rhesus monkey (Sino Biological Inc., #90020-K08H) (rhesus monkey, UniProt I0FM22 23-652); assay: as above
T5 construct: extracellular domain; Purchased; also called rhesus monkey HER2

Mouse = target: T6, Mouse (mouse, UniProt P70424); assay: as above
T6 construct: extracellular domain; also called HER2 extracellular domain of a mouse (Sino Biological Inc., #50714-M08H); mouse HER2
T6 sequence (P70424 23-653): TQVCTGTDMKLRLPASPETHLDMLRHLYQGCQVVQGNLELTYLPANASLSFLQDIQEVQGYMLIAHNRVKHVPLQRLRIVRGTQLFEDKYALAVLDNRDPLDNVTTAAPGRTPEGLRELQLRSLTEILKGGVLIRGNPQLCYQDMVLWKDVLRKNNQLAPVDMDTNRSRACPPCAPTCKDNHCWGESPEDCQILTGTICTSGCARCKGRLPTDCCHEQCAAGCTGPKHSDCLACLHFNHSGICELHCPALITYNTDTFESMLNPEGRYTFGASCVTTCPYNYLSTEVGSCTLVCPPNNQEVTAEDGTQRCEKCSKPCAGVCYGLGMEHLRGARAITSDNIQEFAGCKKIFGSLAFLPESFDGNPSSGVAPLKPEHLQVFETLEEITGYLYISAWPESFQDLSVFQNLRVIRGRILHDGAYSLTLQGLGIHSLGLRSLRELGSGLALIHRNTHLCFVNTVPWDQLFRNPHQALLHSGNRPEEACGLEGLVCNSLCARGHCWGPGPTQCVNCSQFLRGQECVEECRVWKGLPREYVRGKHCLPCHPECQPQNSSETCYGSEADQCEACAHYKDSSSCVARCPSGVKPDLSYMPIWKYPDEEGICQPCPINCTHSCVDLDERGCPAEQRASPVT

[2] = target: T7, HER4 extracellular domain (R&D Systems, #1131-ER-050) (human, UniProt Q15303 26-651); assay: ELISA on extracellular domains of ErbB family proteins, absorbance; antibody concentration not given
T7 construct: extracellular domain; Purchased
T7 sequence (looked up): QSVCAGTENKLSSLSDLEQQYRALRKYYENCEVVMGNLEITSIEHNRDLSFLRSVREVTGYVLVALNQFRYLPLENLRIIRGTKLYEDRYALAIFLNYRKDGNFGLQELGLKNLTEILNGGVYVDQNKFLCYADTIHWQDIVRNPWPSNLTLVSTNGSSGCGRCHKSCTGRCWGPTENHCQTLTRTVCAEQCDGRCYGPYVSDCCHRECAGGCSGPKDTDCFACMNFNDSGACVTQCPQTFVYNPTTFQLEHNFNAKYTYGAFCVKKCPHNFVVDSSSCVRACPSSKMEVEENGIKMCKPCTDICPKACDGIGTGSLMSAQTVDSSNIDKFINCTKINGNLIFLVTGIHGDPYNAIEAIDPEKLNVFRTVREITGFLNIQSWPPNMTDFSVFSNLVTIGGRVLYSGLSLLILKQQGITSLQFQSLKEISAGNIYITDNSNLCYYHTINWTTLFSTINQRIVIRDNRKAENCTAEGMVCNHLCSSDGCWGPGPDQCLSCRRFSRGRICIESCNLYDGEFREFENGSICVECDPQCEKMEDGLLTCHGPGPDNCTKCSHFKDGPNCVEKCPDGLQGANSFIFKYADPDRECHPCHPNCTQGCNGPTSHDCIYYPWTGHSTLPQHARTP

EGFR-ECD-Fc = target: T8, EGFR-ECD-Fc (human, UniProt P00533 25-645); assay: as above
T8 construct: extracellular domain; Produced in the same manner as HER2-ECD-Fc; not shown: hinge region of human IgG1 and Fc portion (CH2-CH3), as in HER2-ECD-Fc

[3] = target: T9, HER3 extracellular domain (R&D Systems, #348-RB-050) (human, UniProt P21860 20-643); assay: as above
T9 construct: extracellular domain; Purchased

HER2-ECD-His protein = target: T10, HER2-ECD-His protein (human, UniProt P04626 23-652); assay: SPR (Biacore 3000), antibody captured by anti-human IgG, HER2-ECD-His analyte, 1:1 model
T10 construct: extracellular domain; not shown: His tag
Experimental: All the experiments were performed using Biacore 3000. First, the goat antibodies to human IgG were immobilized at a concentration of 1000 RU to a CM5 sensor chip via an amine coupling method. […] Before binding to HER2-ECD-His protein, each antibody was bound at a rate of 50 μL/min for 180 seconds, and allowed the buffer to flow thereonto for stabilization purpose. […] The sensor chip was recycled by allowing 10 mM Glycine-HCl (pH 1.5) buffer to flow thereonto. All the sensorgram data was analyzed via a 1:1 interaction model using BIAevaluation software.

B1: 1E11 antibody (antibody, V domains shown)
VH: EVKLVESGGGLVQPGGSLKLSCAASGFTFSSYTMSWVRQTPEKRLEWVAYISNGGGSTYYPDTVKGRFTISRDNAKNTLYLQMSSLKSEDTAMYYCARHLGGTASFDYWGQGTTVTVSS
VL: DIQMTQSPASQSASLGESVTITCLASQTIGTWLAWYQQKPGKSPQLLIYVATSLADGVPSRFSGSGSGTKFSFKISSLQAEDFVSYYCQQLYSTPWTFGGGTKLELK
notes: Mouse variable regions; also called 1E11 clones; chimeric 1E11
B1: binds (ECD); no binding (Domain2); no binding (Domain1). B1: no binding (Domain3); no binding (Rat); binds [1]. B1: no binding (Mouse); no binding [2]; no binding (EGFR-ECD-Fc). The binding result [3] was “no binding”, the Kd (HER2-ECD-His protein) was 0.016 µM and the koff (HER2-ECD-His protein) was 0.00047 s⁻¹. It also gave a kon (HER2-ECD-His protein) of 30000 M⁻¹ s⁻¹.
